One data set concerns OVCAR-8 cells. The note with it: cited from earlier work.
For data set [1] the following is noted: in vivo; cited from earlier work.
Data set [2] relates to SMAD1/5/8 in OVCAR-5 cells. Description: Western blot with phospho-Smad1/5/8 antibody. The data set is classed as cell-based, human. Particulars: OVCAR-5, 100 ug/ml MIS for 15 min, 2, 4 and 6 h. On the procedure: (§1) FIGS. 5A-5B show MISRII is expressed in ovarian cancer cell lines and SMAD 1/5/8 is phosphorylated after treatment with purified MIS. FIG. 5A show expression of MIS type II receptor in human ovarian cancer cell lines OVCAR-5, IGROV-1 and SKOV-3, and in mouse ovarian cancer cell line MOVCAR-8 were analyzed by immunoprecipitation and cross immunoblotting (IB) of lysates with anti-MISRII (Left) Immunoblotting was also performed to detect MISRII expression in separated 3+, 3−, 3+/Ecad−, 3−Ecad+ of OVCAR-5 xenograft tumors (Right). COS cells transfected with a MISRII vector or a pcDNA empty vector served as positive or negative controls (Right). […] MOVCAR-8 (Left) or OVCAR-5 (Right) cells were treated with 20 ug/ml (Left) or 100 ug/ml (Right) MIS for 15 min, 2, 4 and 6 h, and protein was analyzed by Western blot using a phospho-Smad1/5/8 antibody.
(§2) Lysates were harvested in lysis buffer (Cell Signaling; catalog no. 9803) for 15 min from 80% subconfluent cells or from ascite cells after lysing red cells. Proteins were fractionated on SDS-polyacrylamide gels and transferred to a membrane. […] Blots were washed (three times) with TBST the following day for 30 min and incubated with the appropriate peroxidase-conjugated second antibodies for 1 h, and bound antibodies were detected with enhanced chemiluminescence (PerkinElmer Life Sciences).

For data set [3], the system named is Lin28 in OVCAR-5 cells or primary ascites. The experiment in a line: Effect of exogenously administered MIS on Lin28 expression. The data set is classed as cell-based, human. The note with it: separated or unseparated OVCAR-5 cells or primary ascites; data not shown.
In the next data set the test system is 3+/Ecad− OVCAR-5 cells. The experiment in a line: Colony formation assay of FACS-separated cells. Type of data set: cell-based, human. The note with it: OVCAR-5 3+/Ecad− cells, 2000 cells in six-well plates; MIS 30 ug/ml or Doxorubicin 30 nM vs media, 14 days. As for the experimental part:
Colony formation was performed as previously described (4; wei 2010). 3+/Ecad− or 3−/Ecad+ cells separated from the ovarian cancer cell lines were treated with MIS or doxorubicin, cisplatin, or taxol, then plated on 6-well plates containing 2 ml/well complete DMEM medium at 500, 1000, or 2000 cells/well, and incubated for 14 days at 37° C., with a media change at day 7. Cells separated from primary ascites were plated on 12-well plates coated by metrigel or by agarose for colony formation assays at 25,000, 50,000, or 100,000 cells/well. Cells were seeded on 1:2 metrigel or in 0.4% agarose over a 0.8% layer, and incubated for 3-4 weeks at 37° C. At day 14 (cell lines) or day 21 (ascites), plates were washed with 1×PBS, and cells fixed with methanol. Resulting colonies were stained with Giemsa and the stained area captured and analyzed using Image J (Rasband, NIH, USA, http://rsb.info.nih.gov/ij/). Large colonies greater than 4 mm at 10× magnification were also counted and compared.

In data set [4] the test system is epithelial ovarian cancers. Particulars: cited from earlier work.
Data set [5] deals with MOVCAR-7 and MOVCAR-8 cell lines. The experiment in a line: qPCR of CDK inhibitor mRNAs relative to GAPDH. Type of data set: cell-based, mouse. As for the experimental part: Total microRNA (miRNAs) were extracted from the different cell lines HOSE-4, HOSE-6, OVCAR-5, OVCAR-3, OVCAR-8, IGROV-1, and SKOV-3 using the miRNeasy Mini kit (QIAGEN) and reverse-transcribed to cDNAs using the TaqMan MicroRNA Reverse Transcription Kit (Applied Biosystems). Levels of Let-7c miRNAs were measured by quantitative PCR using TagMan Let-7 probes (Applied Biosystems; part no. 4373167) with U47 RNA as internal standard for normalization. Total mRNAs were also extracted from separated and unseparated OVCAR-5, MOVCAR-7, and MOVCAR-8 cell lines using an RNeasy Mini kit (QIAGEN) and reverse-transcribed to cDNAs using the SuperScript III Reverse Transcription Kit (Invitrogen). Levels of Lin28 and cyclin-dependent kinase (CDK) inhibitor mRNAs were measured by quantitative PCR with GAPDH as an internal standard using the following primers: […]
LIN28 F ([…])(SEQ ID NO: 34) and R ([…])(SEQ ID NO: 35); p15 F ([…])(SEQ ID NO: 36) and R ([…])(SEQ ID NO: 37); p16 F ([…])(SEQ ID NO: 38) and R ([…])(SEQ ID NO: 39); p18 F ([…])(SEQ ID NO: 40) and R ([…])(SEQ ID NO: 41); p19F ([…])(SEQ ID NO: 42) and R ([…])(SEQ ID NO: 43); p21 F ([…])(SEQ ID NO: 44) and R ([…])(SEQ ID NO: 45); p27 F ([…])(SEQ ID NO: 46) and R ([…])(SEQ ID NO: 47); CDK2 F ([…])(SEQ ID NO: 48) and R ([…])(SEQ ID NO: 49); CDK4 F ([…])(SEQ ID NO: 50) and R([…])(SEQ ID NO: 51); CDK6 F ([…])(SEQ ID NO: 52) and R ([…])(SEQ ID NO: 53); and GAPDH F ([…])(SEQ ID NO: 54) and R ([…])(SEQ ID NO: 55). Relative fold changes of Let-7c miRNAs and Lin28 and CDK inhibitor mRNAs were calculated as ΔCt or ΔΔCt (1) (n=3 for each primer).
(In qPCR the cycle at which signal appears reflects the starting amount.)

The subject of another data set is OVCAR-5 cells. The experiment in a line: Cell cycle analysis by flow cytometry. Particulars: 100 μg/mL (714 nM) MIS or 60 nM doxorubicin, 48 h. The data set is classed as cell-based, human. As for the experimental part: OVCAR-5 was grown to 50-60% confluency in DMEM with 10% FCS, untreated or treated with 100 μg/mL (714 nM) MIS or 60 nM doxorubicin for 48 h, harvested, and incubated with 10 μg/mL Hoechst 33342 at 37° C. for 30 min or 40 μg/mL propidium iodide (Sigma) at 25° C. for 30 min. Cells were stained with anti-human CD24-PE, anti-mouse/human CD44-APC/Cy7, anti-human Epcam-APC, and anti-human Ecadherin-FITC for 20 min at 4° C. and fixed in paraformaldehyde (1%), and the cell cycle was analyzed using the SORP LSRII.
A general note: In flow cytometry, cells or beads pass a laser one at a time.

For the next data set, the system named is 3+/Ecad− population. Particulars: cited from earlier work.
For data set [6], the system named is ovarian cancer cells marked by CD44, CD24, and Epcam (3+). Particulars: cited from earlier work.
Data set [7] concerns SMAD1/5/8 in MOVCAR-8 cells. The experiment in a line: Western blot with phospho-Smad1/5/8 antibody. Type of data set: cell-based, mouse. The note with it: MOVCAR-8, 20 ug/ml MIS for 15 min, 2, 4 and 6 h. On the procedure: as §1, §2
Setting [8] is: listed as human recombinant MIS.

The text below walks through data of patent US9791449B2, “Ovarian cancer stem cells and methods of isolation and uses thereof” (THE GENERAL HOSPITAL CORPORATION, priority 2011, dated 2017).

Entries after “also recorded” stand apart in the source; their conditions may differ.

B1: MIS: 140 kDa glycoprotein disulfide linked homodimer secreted by fetal testes; produced recombinantly and immunoaffinity purified (protein, listed as Homo sapiens)
chain: MRDLPLTSLALVLSALGALLGTEALRAEEPAVGTSGLIFREDLDWPPGSPQEPLCLVALGGDSNGSSSPLRVVGALSAYEQAFLGAVQRARWGPRDLATFGVCNTGDRQAALPSLRRLGAWLRDPGGQRLVVLHLEEVTWEPTPSLRFQEPPPGGAGPPELALLVLYPGPGPEVTVTRAGLPGAQSLCPSRDTRYLVLAVDRPAGAWRGSGLALTLQPRGEDSRLSTARLQALLFGDDHRCFTRMTPALLLLPRSEPAPLPAHGQLDTVPFPPPRPSAELEESPPSADPFLETLTRLVRALRVPPARASAPRLALDPDALAGFPQGLVNLSDPAALERLLDGEEPLLLLLRPTAATTGDPAPLHDPTSAPWATALARRVAAELQAAAAELRSLPGLPPATAPLLARLLALCPGGPGGLGDPLRALLLLKALQGLRVEWRGRDPRGPGRAQRSAGATAADGPCALRELSVDLRAERSVLIPETYQANNCQGVCGWPQSDRNPRYGNHVVLLLKMQARGAALARPPCCVPTAYAGKLLISLSEERISAHHVPNMVATECGCR
modifications: homodimer
Turning to B1, in the data set with OVCAR-8 cells, the P16 protein level entry is given as “upregulated”. Also, the “toxicity after prolonged therapy” value in data set [1] was “without obvious toxicity”. Further, the SMAD1/5/8 phosphorylation result is “significantly increased” in [2], “activates SMAD1/5/8 signaling” in data set [2] (setting [8]), “significantly increased” in [7] and “activates SMAD1/5/8 signaling” in data set [7] (setting [8]). For the same molecule, the “effect on Lin28 expression” value in data set [3] was “no direct effect”. In the data set with 3+/Ecad− OVCAR-5 cells, the “colony formation of 3+/Ecad− cells” value was “decreased colony formation; also recorded: decreases significantly; also recorded: significantly inhibited colony growth; also recorded: significant reduction in absolute colony number and cell number; also recorded: significant reduction in absolute colony numbers; also recorded: inhibited colony formation”. For the same molecule, the “combination with commonly used cancer drugs to control tumor growth” value in data set [4] is “synergistically or additively”. Also, the “growth of epithelial ovarian cancers” value in [4] (in vitro and in vivo) was “inhibits their growth”. In data set [5] (MOVCAR-7 and -8, 50 μg/mL MIS or 60 nM doxorubicin vs vehicle, 4 h), the p15 expression result was “specifically increased; also recorded: significant and opposite responses”. Also, the “other CDK inhibitors mRNA levels (p18, p19, p21, p27)” value in data set [5] (MOVCAR-7 or -8, 50 μg/mL MIS or 60 nM doxorubicin, 4 h) is listed as “did not regulate significantly”. The p16 expression entry in data set [5] (MOVCAR-8, 50 μg/mL MIS vs vehicle, 4 h) is on record as “specifically increased”. In addition, the “kinases tested (CDK2, CDK4, CDK6)” value in data set [5] (transgenic cell lines treated with MIS or doxorubicin, data not shown) is recorded as “unaffected”. For the same molecule, in the data set with OVCAR-5 cells, the “G1 distribution of 3+/Ecad+ population” value was “neither MIS nor doxorubicin affected”. The “percentage of 3+/Ecad− cells in G1” value with OVCAR-5 cells is listed as “inducing G1 arrest; also recorded: significantly increased; also recorded: G1 accumulation; also recorded: induces G1 cell cycle arrest”. Moreover, the “response of 3+/Ecad− population” value in the data set on 3+/Ecad− population is recorded as “responded well”. The “inhibition of 3+ enriched population” value in data set [6] is “significantly inhibited”.
